# Reference: patent publication US20220041721A1 (WUHAN YZY BIOPHARMA, published 2022)
# B1: Y150-F9-11 (bispecific antibody, human IgG1, kappa)
# scFv: QVQLVESGGGVVQPGRSLRLSCAASGFTFSTYAMNWVRQAPGKGLEWVARIRSKYNNYATYYADSVKDRFTISRDDSKNTLYLQMNSLRAEDTAVYYCARHGNFGNSYVSWFAYWGQGTLVTVSSGGGGSGGGGSGGGGSQTVVTQEPSLTVSPGGTVTLTCRSSTGAVTTSNYANWVQQKPGQAPRGLIGGTNKRAPGVPARFSGSLLGGKAALTLSGVQPEDEAEYYCALWYSNLWVFGGGTKVEIKGRGRGSDKTHTCPPSPAPPVAGPSVFLFPPKPKDTLMISRTPEVTCVVVDVSHEDPEVQFNWYVDGVEVHNAKTKPREEQFNSTFRVVSVLTVVHQDWLNGKEYKCKVSNKGLPAPIEKTISKTKGQPREPQVCTLPPSRDELTKNQVSLSCAVKGFYPSDIAVEWESNGQPENNYKTTPPVLDSDGSFFLVSKLTVDKSRWQQGNVFSCSVMHEALHNHYTQKSLSLSPGK
# heavy: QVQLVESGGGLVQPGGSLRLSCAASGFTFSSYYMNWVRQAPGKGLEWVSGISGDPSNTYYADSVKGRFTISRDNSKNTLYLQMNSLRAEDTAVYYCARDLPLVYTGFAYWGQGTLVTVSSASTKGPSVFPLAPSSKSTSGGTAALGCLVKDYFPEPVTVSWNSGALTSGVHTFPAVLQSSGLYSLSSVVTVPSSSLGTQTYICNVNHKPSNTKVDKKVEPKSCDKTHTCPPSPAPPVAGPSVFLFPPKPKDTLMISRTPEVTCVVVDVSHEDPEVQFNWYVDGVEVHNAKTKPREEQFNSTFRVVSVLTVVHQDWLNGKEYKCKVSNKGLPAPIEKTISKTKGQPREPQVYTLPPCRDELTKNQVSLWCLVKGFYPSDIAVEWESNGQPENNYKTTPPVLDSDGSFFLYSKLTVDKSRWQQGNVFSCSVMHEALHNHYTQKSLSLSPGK
# light: DIELTQPPSVSVAPGQTARISCSGDNLRHYYVYWYQQKPGQAPVLVIYGDSKRPSGIPERFSGSNSGNTATLTISGTQAEDEADYYCQTYTGGASLVFGGGTKLTVLRTVAAPSVFIFPPSDEQLKSGTASVVCLLNNFYPREAKVQWKVDNALQSGNSQESVTEQDSKDSTYSLSSTLTLSKADYEKHKVYACEVTHQGLSSPVTKSFNRGEC
# notes: Anti-CD38 (MOR) Fab arm with CL Lc1 and anti-CD3 scFv (VH2a/VL5)-Fc fusion peptide
# Tests used:
# [1] = biological target: T1, monkey CD3 (monkey); experiment: flow cytometry on monkey CD3 positive T cells
# T1 construct: whole, on cells; also called CD3 on monkey CD3 positive T cells
# [2] = biological target: T2, human CD3 (human, UniProt P07766 23-207); experiment: cell-based or functional assay
# [3] = biological target: T3, Human CD38 (human, UniProt P28907 1-300); experiment: flow cytometry on CD38 positive tumor cells (MM.1S or RPMI 8226)
# T3 construct: whole, on cells; the assays used the protein on tumor cells
# [4] = biological target: T2, human CD3; experiment: flow cytometry on human CD3 positive T cells
binder,measurement,setting,value
B1,EC50,[1],461 nM
same,"EC50 values of T-cell activation (CD3 and CD69 dual positive cells; human PBMC with MC/CAR target cells 5:1, 48 h)",[2],0.0835 nM
same,EC50,[3],106 nM
same,EC50,[4],437 nM
